From patent publication US20120225828A1 (PALATIN TECHNOLOGIES, published 2012)
Bridge positions count the residues as written; N and C are the ends. Square brackets hold non-standard residues; d marks the D form. dPhe(3-Cl) = N[C@H](Cc1cccc(Cl)c1)C(=O)O; dPhe(4-Cl) = N[C@H](Cc1ccc(Cl)cc1)C(=O)O; dPhe(4-Me) = Cc1ccc(C[C@@H](N)C(=O)O)cc1; dPhe(2-Cl) = N[C@H](Cc1ccccc1Cl)C(=O)O; dPhe(4-F) = N[C@H](Cc1ccc(F)cc1)C(=O)O; 1Nal = N[C@@H](Cc1cccc2ccccc12)C(=O)O; 2Nal = N[C@@H](Cc1ccc2ccccc2c1)C(=O)O; d1Nal = N[C@H](Cc1cccc2ccccc12)C(=O)O; d2Nal = N[C@H](Cc1ccc2ccccc2c1)C(=O)O; dPhe(2-F) = N[C@H](Cc1ccccc1F)C(=O)O; Cit = NC(=O)NCCC[C@H](N)C(=O)O; Nle = CCCC[C@H](N)C(=O)O; Orn = NCCC[C@H](N)C(=O)O; Dab = NCC[C@H](N)C(=O)O; Dap = NC[C@H](N)C(=O)O

Target: human melanocortin-1 receptor hMCR-1 expressed by the human melanoma cell line HBL (human, UniProt Q01726 1-317)
Experiment: cell-based or functional assay

human melanocortin-1 receptor hMCR-1 expressed by the human melanoma cell line HBL, sequence (Q01726 whole entry): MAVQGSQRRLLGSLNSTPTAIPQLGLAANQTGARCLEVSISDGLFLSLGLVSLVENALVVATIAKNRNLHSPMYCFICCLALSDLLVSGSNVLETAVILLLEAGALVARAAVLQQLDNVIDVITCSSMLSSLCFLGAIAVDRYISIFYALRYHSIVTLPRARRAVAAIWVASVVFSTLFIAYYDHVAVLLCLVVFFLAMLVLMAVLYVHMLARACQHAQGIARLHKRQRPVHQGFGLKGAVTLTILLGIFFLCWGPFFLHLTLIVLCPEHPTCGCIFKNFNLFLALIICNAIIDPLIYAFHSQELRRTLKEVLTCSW

Binder	MC-1 Emax (average; cAMP HBL)	MC-1 EC50 (average; cAMP HBL)
Ac-[Nle]EH[dF]R[Dab][2Nal]-NH2 (lactam 2-6) [Ac-Nle-cyclo(Glu-His-D-Phe-Arg-Dab)-Nal 2-NH2]	83%	–
Ac-[Nle][Dab]H[dF]R[Dab]W-NH2 (linker 2-6 via C(:O)‑(CH2)2‑C(:O)) [Ac-Nle-cyclo(Dab-His-D-Phe-Arg-Dab)-Trp-NH2 with bridge C(═O)-(CH2)2-C(═O)]	92%	–
Ac-[Nle]EP[dF]R[Dab]-NH2 (lactam 2-6) [Ac-Nle-cyclo(Glu-Pro-D-Phe-Arg-Dab)-NH2]	102%	–
Ac-[Nle]E[Cit][dF]R[Dab]W-NH2 (lactam 2-6) [Ac-Nle-cyclo(Glu-Cit-D-Phe-Arg-Dab)-Trp-NH2 (SEQ ID NO: 54)]	97%	–
Ac-[Nle]E[Orn][dPhe(4-Me)]R[Dab]-NH2 (lactam 2-6; SMILES CCCC[C@H](NC(C)=O)C(=O)N[C@H]1CCC(=O)NCC[C@@H](C(N)=O)NC(=O)[C@H](CCCNC(=N)N)NC(=O)[C@@H](Cc2ccc(C)cc2)NC(=O)[C@H](CCCN)NC1=O) [Ac-Nle-cyclo(Glu-Orn-D-Phe(4-Me)-Arg-Dab)-NH2]	96%	0.076 nM
Ac-[Nle]E[Orn][dPhe(4-F)]R[Dab]-NH2 (lactam 2-6; SMILES CCCC[C@H](NC(C)=O)C(=O)N[C@H]1CCC(=O)NCC[C@@H](C(N)=O)NC(=O)[C@H](CCCNC(=N)N)NC(=O)[C@@H](Cc2ccc(F)cc2)NC(=O)[C@H](CCCN)NC1=O) [Ac-Nle-cyclo(Glu-Orn-D-Phe(4-F)-Arg-Dab)-NH2]	102%	1 nM
Ac-[Nle]EH[dF]R[Dab]-NH2 (lactam 2-6; SMILES CCCC[C@H](NC(C)=O)C(=O)N[C@H]1CCC(=O)NCC[C@@H](C(N)=O)NC(=O)[C@H](CCCNC(=N)N)NC(=O)[C@@H](Cc2ccccc2)NC(=O)[C@H](Cc2c[nH]cn2)NC1=O) [Ac-Nle-cyclo(Glu-His-D-Phe-Arg-Dab)-NH2]	85%	0.32 nM
Ac-[Nle]EH[dF]A[Dab]-NH2 (lactam 2-6; SMILES CCCC[C@H](NC(C)=O)C(=O)N[C@H]1CCC(=O)NCC[C@@H](C(N)=O)NC(=O)[C@H](C)NC(=O)[C@@H](Cc2ccccc2)NC(=O)[C@H](Cc2c[nH]cn2)NC1=O) [Ac-Nle-cyclo(Glu-His-D-Phe-Ala-Dab)-NH2]	73%	44 nM
Ac-[Nle]E[Dab][dF]R[Dab]W-NH2 (lactam 2-6) [Ac-Nle-cyclo(Glu-Dab-D-Phe-Arg-Dab)-Trp-NH2 (SEQ ID NO: 57)]	108%	–
Ac-[Nle][Dap]H[dF]R[Dap]W-NH2 (linker 2-6 via C(:O)‑(CH2)2‑C(:O)) [Ac-Nle-cyclo(Dap-His-D-Phe-Arg-Dap)-Trp-NH2 with bridge C(═O)-(CH2)2-C(═O)]	70%	0.007 nM
Ac-[Nle]EH[dF]R[Orn]W-NH2 (lactam 2-6) [Ac-Nle-cyclo(Glu-His-D-Phe-Arg-Orn)-Trp-NH2]	91%	–
Ac-[Nle]EH[dF]R[Dap]W-NH2 (lactam 2-6) [Ac-Nle-cyclo(Glu-His-D-Phe-Arg-Dap)-Trp-NH2]	91%	–
Ac-[Nle]E[Orn][dPhe(3,4-F)]R[Dab]-NH2 (lactam 2-6) [Ac-Nle-cyclo(Glu-Orn-D-Phe(3,4-F)-Arg-Dab)-NH2]	97%	1 nM
Ac-[Nle]EH[dF]R[Dab][d2Nal]-NH2 (lactam 2-6) [Ac-Nle-cyclo(Glu-His-D-Phe-Arg-Dab)-Nal 2-NH2 (SEQ ID NO: 14)]	69%	–
Ac-[Nle]EH[dF]R[Dab]K-NH2 (lactam 2-6; SMILES CCCC[C@H](NC(C)=O)C(=O)N[C@H]1CCC(=O)NCC[C@@H](C(=O)N[C@@H](CCCCN)C(N)=O)NC(=O)[C@H](CCCNC(=N)N)NC(=O)[C@@H](Cc2ccccc2)NC(=O)[C@H](Cc2c[nH]cn2)NC1=O) [Ac-Nle-cyclo(Glu-His-D-Phe-Arg-Dab)-Lys-NH2 (SEQ ID NO: 55)]	91%	0.175 nM
Ac-[Nle]EH[dF]R[Dab]W-NH2 (lactam 2-6) [Ac-Nle-cyclo(Glu-His-D-Phe-Arg-Dab)-Trp-NH2]	95%	–
Ac-[Nle]EH[dF]R[Dab][dW]-NH2 (lactam 2-6) [Ac-Nle-cyclo(Glu-His-D-Phe-Arg-Dab)-D-Trp-NH2]	93%	–

Binder	MC-1 Emax (average; cAMP HBL)	MC-1 EC50 (average; cAMP HBL)
Ac-[Nle]E[Orn][dPhe(2-F)]R[Dab]-NH2 (lactam 2-6; SMILES CCCC[C@H](NC(C)=O)C(=O)N[C@H]1CCC(=O)NCC[C@@H](C(N)=O)NC(=O)[C@H](CCCNC(=N)N)NC(=O)[C@@H](Cc2ccccc2F)NC(=O)[C@H](CCCN)NC1=O) [Ac-Nle-cyclo(Glu-Orn-D-Phe(2-F)-Arg-Dab)-NH2]	95%	0.8 nM
Ac-[Nle]E[Orn][dF]R[Dab]W-NH2 (lactam 2-6) [Ac-Nle-cyclo(Glu-Orn-D-Phe-Arg-Dab)-Trp-NH2 (SEQ ID NO: 58)]	109%	–
Ac-[Nle]EH[dF]R[Dab]A-NH2 (lactam 2-6; SMILES CCCC[C@H](NC(C)=O)C(=O)N[C@H]1CCC(=O)NCC[C@@H](C(=O)N[C@@H](C)C(N)=O)NC(=O)[C@H](CCCNC(=N)N)NC(=O)[C@@H](Cc2ccccc2)NC(=O)[C@H](Cc2c[nH]cn2)NC1=O) [Ac-Nle-cyclo(Glu-His-D-Phe-Arg-Dab)-Ala-NH2]	97%	0.008 nM
Ac-[Nle]EH[dF]R[Dap]W-OH (lactam 2-6) [Ac-Nle-cyclo(Glu-His-D-Phe-Arg-Dap)-Trp-OH]	81%	0.107 nM
Ac-[Nle]E[Orn][dF]R[Dab]-NH2 (lactam 2-6; SMILES CCCC[C@H](NC(C)=O)C(=O)N[C@H]1CCC(=O)NCC[C@@H](C(N)=O)NC(=O)[C@H](CCCNC(=N)N)NC(=O)[C@@H](Cc2ccccc2)NC(=O)[C@H](CCCN)NC1=O) [Ac-Nle-cyclo(Glu-Orn-D-Phe-Arg-Dab)-NH2]	102%	0.5 nM
Ac-[Nle]E[Orn][dPhe(4-OMe)]R[Dab]-NH2 (lactam 2-6) [Ac-Nle-cyclo(Glu-Orn-D-Phe(4-OMe)-Arg-Dab)-NH2]	99%	0.12 nM
Ac-[dF]EH[dF]R[Dab]W-NH2 (lactam 2-6) [Ac-D-Phe-cyclo(Glu-His-D-Phe-Arg-Dab)-Trp-NH2]	75%	–
Ac-[Nle]E[Orn][dPhe(3-Cl)]R[Dab]-NH2 (lactam 2-6; SMILES CCCC[C@H](NC(C)=O)C(=O)N[C@H]1CCC(=O)NCC[C@@H](C(N)=O)NC(=O)[C@H](CCCNC(=N)N)NC(=O)[C@@H](Cc2cccc(Cl)c2)NC(=O)[C@H](CCCN)NC1=O) [Ac-Nle-cyclo(Glu-Orn-D-Phe(3-Cl)-Arg-Dab)-NH2]	86%	2 nM
Ac-[Nle]EP[dF]R[Dab]W-NH2 (lactam 2-6; SMILES CCCC[C@H](NC(C)=O)C(=O)N[C@H]1CCC(=O)NCC[C@@H](C(=O)N[C@@H](Cc2c[nH]c3ccccc23)C(N)=O)NC(=O)[C@H](CCCNC(=N)N)NC(=O)[C@@H](Cc2ccccc2)NC(=O)[C@@H]2CCCN2C1=O) [Ac-Nle-cyclo(Glu-Pro-D-Phe-Arg-Dab)-Trp-NH2]	97%	0.18 nM
Ac-[Nle]EH[dF]G[Dab]W-NH2 (lactam 2-6; SMILES CCCC[C@H](NC(C)=O)C(=O)N[C@H]1CCC(=O)NCC[C@@H](C(=O)N[C@@H](Cc2c[nH]c3ccccc23)C(N)=O)NC(=O)CNC(=O)[C@@H](Cc2ccccc2)NC(=O)[C@H](Cc2c[nH]cn2)NC1=O) [Ac-Nle-cyclo(Glu-His-D-Phe-Gly-Dab)-Trp-NH2]	59%	4 nM
Ac-[Nle]EH[dF]R[Dab][d1Nal]-NH2 (lactam 2-6) [Ac-Nle-cyclo(Glu-His-D-Phe-Arg-Dab)-D-Nal 1-NH2]	73%	–
Ac-[Nle]EH[dF]R[Dab]W-OH (lactam 2-6; SMILES CCCC[C@H](NC(C)=O)C(=O)N[C@H]1CCC(=O)NCC[C@@H](C(=O)N[C@@H](Cc2c[nH]c3ccccc23)C(=O)O)NC(=O)[C@H](CCCNC(=N)N)NC(=O)[C@@H](Cc2ccccc2)NC(=O)[C@H](Cc2c[nH]cn2)NC1=O) [Ac-Nle-cyclo(Glu-His-D-Phe-Arg-Dab)-Trp-OH]	79%	–
Ac-[Nle]E[Orn][dPhe(2-Cl)]R[Dab]-NH2 (lactam 2-6; SMILES CCCC[C@H](NC(C)=O)C(=O)N[C@H]1CCC(=O)NCC[C@@H](C(N)=O)NC(=O)[C@H](CCCNC(=N)N)NC(=O)[C@@H](Cc2ccccc2Cl)NC(=O)[C@H](CCCN)NC1=O) [Ac-Nle-cyclo(Glu-Orn-D-Phe(2-Cl)-Arg-Dab)-NH2]	88%	1 nM
Ac-[Nle][Dab]H[dF]R[Dap]W-NH2 (linker 2-6 via C(:O)‑(CH2)2‑C(:O)) [Ac-Nle-cyclo(Dab-His-D-Phe-Arg-Dap)-Trp-NH2 with bridge C(═O)-(CH2)2-C(═O)]	78%	0.006 nM
Ac-[Nle]EK[dF]R[Dab]W-NH2 (lactam 2-6) [Ac-Nle-cyclo(Glu-Lys-D-Phe-Arg-Dab)-Trp-NH2 (SEQ ID NO: 56)]	108%	–
Ac-[Nle]EH[dF]R[Dab][1Nal]-NH2 (lactam 2-6) [Ac-Nle-cyclo(Glu-His-D-Phe-Arg-Dab)-Nal 1-NH2]	72%	–
Ac-[Nle]E[Orn][dPhe(4-Cl)]R[Dab]-NH2 (lactam 2-6; SMILES CCCC[C@H](NC(C)=O)C(=O)N[C@H]1CCC(=O)NCC[C@@H](C(N)=O)NC(=O)[C@H](CCCNC(=N)N)NC(=O)[C@@H](Cc2ccc(Cl)cc2)NC(=O)[C@H](CCCN)NC1=O) [Ac-Nle-cyclo(Glu-Orn-D-Phe(4-Cl)-Arg-Dab)-NH2]	100%	0.1 nM
